Measurements taken from patent US20260285970 (published 2026).

Experiments:
Assay in all cases: ELISA
IL-2 = IL-2 (UniProt P60568)
IL-17 = target: IL-17
BSA = BSA (bovine, UniProt P02769)
IL-4 = target: T1, IL-4 (UniProt P05112)
T1 chain: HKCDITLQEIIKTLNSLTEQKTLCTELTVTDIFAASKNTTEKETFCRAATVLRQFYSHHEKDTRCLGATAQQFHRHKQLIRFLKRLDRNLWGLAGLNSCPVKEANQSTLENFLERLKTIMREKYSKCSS

Measured: binding result

Chain of IL-17 (chain, as listed by the source): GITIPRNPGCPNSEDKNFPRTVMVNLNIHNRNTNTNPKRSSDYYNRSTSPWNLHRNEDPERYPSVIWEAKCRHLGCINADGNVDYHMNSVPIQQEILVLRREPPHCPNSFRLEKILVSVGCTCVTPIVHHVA
Chain of IL-2 (P60568 21-153): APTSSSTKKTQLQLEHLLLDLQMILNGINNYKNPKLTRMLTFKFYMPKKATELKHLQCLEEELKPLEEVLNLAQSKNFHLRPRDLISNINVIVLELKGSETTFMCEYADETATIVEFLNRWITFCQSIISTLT
Chain of BSA (P02769 25-607): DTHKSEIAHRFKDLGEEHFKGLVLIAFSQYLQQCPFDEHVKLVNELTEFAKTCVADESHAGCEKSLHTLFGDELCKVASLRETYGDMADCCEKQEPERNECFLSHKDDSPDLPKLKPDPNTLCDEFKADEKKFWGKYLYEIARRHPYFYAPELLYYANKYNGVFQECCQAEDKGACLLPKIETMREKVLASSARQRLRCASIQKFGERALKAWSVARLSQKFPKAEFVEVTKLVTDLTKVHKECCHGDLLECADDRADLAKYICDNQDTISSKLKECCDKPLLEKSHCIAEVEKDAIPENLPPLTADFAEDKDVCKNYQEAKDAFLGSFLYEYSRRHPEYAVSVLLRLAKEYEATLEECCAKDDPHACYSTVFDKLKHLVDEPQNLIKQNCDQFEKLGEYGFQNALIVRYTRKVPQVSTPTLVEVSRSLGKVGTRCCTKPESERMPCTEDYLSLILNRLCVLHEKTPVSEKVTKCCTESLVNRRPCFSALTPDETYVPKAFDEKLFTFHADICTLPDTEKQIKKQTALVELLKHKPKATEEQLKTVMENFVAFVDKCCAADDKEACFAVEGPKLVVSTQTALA

B1: BDG33.025 (antibody, V domains shown)
VH: QMQLVESGGGVVQPGRSLRLSCAASGFTFRTYGMHWVRQAPGKGLEWVADIWYDGSNKHYADSVKGRFTITRDNSKNTLNLQMNSLRAEDTAVYYCARAPQWYLVAEPFDLWGQGTMVTVSS
VL: SYVLTQPPSVSVAPGQTARITCGGNLIGSKLVHWYQQKPGQAPVLVVYDDSDRPSLIPERFSGSNSGNTATLTISRVEAGDEADYYCQVWDSSSDGVVFGGGTKLTVL
no binding: IL-2 | IL-17

B2: BDG33.023 (antibody, V domains shown)
VH: QMQLVESGGGVVQPGRSLRLSCAASGFAFRTYGMHWVRQAPGKGLEWVAVIWYDGSNTHYADSVKGRFTITRDNSKNTLNLQMNSLRAEDTAVYYCARAPQWYLSAEAFDLWGQGTMVTVSS
VL: SYVLTQPPSVSVAPGQTARITCGGNLIGSKLVHWYQQKPGQAPVLVVYDDSDRPSRIPERFSGSNSGNTATLTISRVEAGDEADYYCQVWDHSSDHVVFGGGTKLTVL
no binding: all assays above
